Measured values from PMC4637192.

Biological target: HLA-DRB5*01:01 molecule (recombinant HLA-DRA1 and DRB5*01:01 chains) (human)
Assay: AlphaScreen or HTRF

Substance: IE1 211-225 variant P3 K→Y (…) (peptide)
- IC50: 8 nM
